{"source": "paper PMC11421798", "about": "“Subfunctionalization of NRC3 altered the genetic structure of the Nicotiana NRC network” (PLOS Genetics, 2024)", "molecular_target": "the molecule itself", "assay": "native gel or EMSA; BN-PAGE (NativePAGE 4-16% Bis-Tris) of 1% digitonin extracts of nrc2/3/4_KO N. benthamiana leaves at 2 dpi; NRC3 variant co-expressed with Rpi-blb2, without AVRblb2", "data": [{"protein": "N^L21ENN (NbNRC3c with L21E) (natural protein, N. benthamiana, UniProt A0A5J6DCA3 1-888, looked up, NRC3 (NbNRC3c) of Nicotiana benthamiana with L21E in the CC domain; L21E is named only in the methods of the BN-PAGE; the results call this protein NNN; also called NNN (in the BN-PAGE); source: nrc2/3/4_KO N. benthamiana leaves, agroinfiltrated, in digitonin extract) MADVAADVAVKFLVENLMQLEIDNADLIIGIKGEVENLLQDLNDFNAFLKQAAKSRRDNEVLKSLVKKIRKVVNDAEDSIDKFVIEAKRHDDKNKFAQWFHLTHVARAKGVADEIKTIRERVKEIRQNDAYGLQAITSYDNFNQGAQERKVPVVEEDDVVGFDDEAKTVIDRLIGGSDYVVPVVGMPGLGKTTLAYKIFKDSTVEYEFFNRIWVYVSQSFNRREIFLNIISKFTRNTKQYHDTPEEELANEIKELLGKGGKYLVVLDDVWTREAWDRIKIAFPNNNKRNRVLMTTRQNNVAKSCNDKPHDLKFLTENESWELLEKRVFHKEKCPFELELPGKSIAKKCRGLPLAIVVIAGALIGKGKTTREWELVADSVGEHLINRDPENCKKLVQMSYDRLPYDLKACFLYCGAFPGGSEISAQKLICLWIAEGFIQYQGPLTLEDIAEDHLNDLVNRNLVMVMKRSSSGQIKTCRVHDMLHEFCRHEAMMEENLFQEIKRGQEHSFPEKQELASYRRLCIHSSVSEFLSTKPFAEHVRSFLCFASKKFEMPLGEIPAIPRAFPLLRVLDAESIKFSRFSREFFKLFHLRYIAFSTDSIMTIPTNIGNLWNVQTLIIETQQGTLDIKADIWNMTRLRHVCINASATLPSPKRPKSSKDNLVNRCLQTLSTIAPECCTAEVFTRTPNLKKLGVRGKIDALLETSKDGSSSGLFSNIGKLDCLEKLKLVNDTRQSRKQLHLPPAYIFPQKLKKLTLIDTWFEWKDMSILGLLEYLEVLKLKENAFRGQSWEPEDSGFPRLQVLWIERTDLSSWKASSGNFPRLKCLVLIACDNLKELPAELADVENLQLMELQSTSVSAAKSARAILKKKQQKVGSGFKLSVFPPDLGL", "values": [{"measurement": "stoichiometry N", "value": 2}]}, {"protein": "N^L21… (… with L21E) (natural protein, N. benthamiana, UniProt A0A5J6DCA3 1-888, looked up, L21E is named only in the methods of the BN-PAGE; source: nrc2/3/4_KO N. benthamiana leaves, agroinfiltrated, in digitonin extract) MADVAADVAVKFLVENLMQLEIDNADLIIGIKGEVENLLQDLNDFNAFLKQAAKSRRDNEVLKSLVKKIRKVVNDAEDSIDKFVIEAKRHDDKNKFAQWFHLTHVARAKGVADEIKTIRERVKEIRQNDAYGLQAITSYDNFNQGAQERKVPVVEEDDVVGFDDEAKTVIDRLIGGSDYVVPVVGMPGLGKTTLAYKIFKDPKVEYEFFNRIWVYVSQSFKRREIFLNIISKFTRNTKQYHDTPEEELANEIKELLGKGGKYLVVLDDVWTREAWDRIKIAFPNNNKRNRVLMTTRQNNVAKSCNDKPHDLKFLTENESWELLEKRVFHKEKCPFELELPGKSIAKKCRGLPLAIVVIAGALIGKGKTTREWELVADSVGEHLINRDPENCKKLVQMSYDRLPYDLKACFLYCGAFPGGSEISAQKLICLWIAEGFIQYQGPLTLEDIAEDHLNDLVNRNLVMVMKRSSSGQIKTCRVHDMLHEFCRHEAMMEENLFQEIKRGQEHSFPEKQELASYRRLCIHSSVSEFLSTKPFAEHVRSFLCFASKKFEMPLGEIPAIPRAFPLLRVLDAESIKFSRFSREFFKLFHLRYIAFSTDSIMTIPTNIGNLWNVQTLIIETQQGTLDIKADIWNMTRLRHVCTNASATLPSPKRPKSSKDNLVNRCLQTLSTIAPECCTAEVFTRTPNLKKLGVRGKIDALLETSKDGSSSGLFSNIGKLDCLEKLKLVNDTRQSRKQLHLPPAYIFPQKLKKLTLIDTWFEWKDMSILGLLEYLEVLKLKENAFRGQSWEPEDSGFPRLQVLWIERTDLSSWKASSGNFPRLKHLVLIACDKLKELPAELADVENLQLMELQSTSVSAAKSARAILKKKQQKVGSGFKLSVFPPDLGL", "values": [{"measurement": "stoichiometry N", "value": 2}]}]}
